T1: FcγRIIb (human, UniProt P31994 43-217)
T1 construct: extracellular domain; also called FcgRIIb; CD32B
T1 sequence (looked up): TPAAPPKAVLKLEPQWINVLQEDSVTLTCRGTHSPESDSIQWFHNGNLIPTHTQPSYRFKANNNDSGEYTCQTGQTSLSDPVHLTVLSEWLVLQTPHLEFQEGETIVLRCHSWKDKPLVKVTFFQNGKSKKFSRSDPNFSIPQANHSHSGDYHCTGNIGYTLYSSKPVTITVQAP


What was measured:
FcγRIa [1] = biological target: T2, FcγRIa (human, UniProt P12314 16-292); experiment: ratio of He/Con_1a to He/Con_2b (FcγRIa over FcγRIIb), SPR
T2 construct: extracellular domain; also called FcgRI; CD64
T2 sequence (P12314 16-292): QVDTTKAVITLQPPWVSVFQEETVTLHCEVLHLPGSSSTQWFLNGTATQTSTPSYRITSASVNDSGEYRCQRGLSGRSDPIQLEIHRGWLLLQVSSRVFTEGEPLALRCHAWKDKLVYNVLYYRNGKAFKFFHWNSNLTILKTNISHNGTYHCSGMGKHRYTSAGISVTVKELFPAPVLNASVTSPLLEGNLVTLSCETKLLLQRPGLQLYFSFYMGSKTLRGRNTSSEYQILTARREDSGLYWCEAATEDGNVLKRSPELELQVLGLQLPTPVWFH
Protocol: (§1) The heterodimerized antibodies He Abs in which one of the H chains was introduced with an alteration were assayed for their binding activities to each activating FcγR and inhibitory FcγR according to the method described in Example 4. […] The activating FcγRs in FIGS. 26, 27, 28, and 29 are FcγRIa, FcγRIIa (R), FcγRIIa (H), and FcγRIIIa, respectively.
(§2) Analysis of interaction between objective antibody and the FcγR was carried out using Biacore T100 (GE Healthcare). HBS-EP+ (GE Healthcare) was used as the running buffer, and the measurement temperature was set to 25° C. Chips produced by immobilizing the antigen peptide by the amine coupling method to a Series S Sencor Chip CM5 (GE Healthcare), or alternatively, chips produced by allowing preliminarily biotinylated antigen peptides to interact with and immobilize onto a Series S Sensor Chip SA (certified) (GE Healthcare) were used. Antibodies of interest were captured onto an antigen peptide-immobilized chip, and allowed to interact to each FcγR diluted with running buffer. To regenerate and repeatedly use the chip, the antibodies captured on the chip were washed off by reacting 10 mM glycine-HCl, pH 1.5.

FcγRIa [2] = biological target: T2, FcγRIa; experiment: SPR (Biacore), captured antibody, soluble FcγR; relative to GpH7-A5/GpH7-B3/GpL16-k0 = 100
Protocol: as §1, §2

FcγRIIb = biological target: T1, FcγRIIb; experiment: as above
Protocol: as §1, §2

| He_1a/2b (Ia/IIb) (FcγRIa [1]) | He/Con_1a (FcγRIa [2]) | He/Con_2b (FcγRIIb) | Binder |
| --- | --- | --- | --- |
| 2.01 | 106 % of control | 52.4 % of control | GpH7-A5/GpH7-B3 variant A330_03V/GpL16-k0 (antibody, human IgG1, kappa, He Ab; mutation in the GpH7-B3 chain only; also called He Ab) heavy 1: not shown heavy 2: not shown light: DIVMTQSPLSLPVTPGEPASISCQASESLVHSNRNTYLHWYLQKPGQSPQLLIYKVSNRFSGVPDRFSGSGSGTDFTLKISRVEAEDVGVYYCSQNTHVPPTFGQGTKVEIERTVAAPSVFIFPPSDEQLKSGTASVVCLLNNFYPREAKVQWKVDNALQSGNSQESVTEQDSKDSTYSLSSTLTLSKADYEKHKVYACEVTHQGLSSPVTKSFNRGEC |
| 1.57 | 105 % of control | 67.1 % of control | GpH7-A5/GpH7-B3 variant A330_07I/GpL16-k0 (antibody, human IgG1, kappa, He Ab; mutation in the GpH7-B3 chain only; also called He Ab) heavy 1: not shown heavy 2: not shown light: DIVMTQSPLSLPVTPGEPASISCQASESLVHSNRNTYLHWYLQKPGQSPQLLIYKVSNRFSGVPDRFSGSGSGTDFTLKISRVEAEDVGVYYCSQNTHVPPTFGQGTKVEIERTVAAPSVFIFPPSDEQLKSGTASVVCLLNNFYPREAKVQWKVDNALQSGNSQESVTEQDSKDSTYSLSSTLTLSKADYEKHKVYACEVTHQGLSSPVTKSFNRGEC |
| 1.23 | 103 % of control | 83.8 % of control | GpH7-A5/GpH7-B3 variant E333_02A/GpL16-k0 (antibody, human IgG1, kappa, He Ab; mutation in the GpH7-B3 chain only; also called He Ab) heavy 1: not shown heavy 2: not shown light: DIVMTQSPLSLPVTPGEPASISCQASESLVHSNRNTYLHWYLQKPGQSPQLLIYKVSNRFSGVPDRFSGSGSGTDFTLKISRVEAEDVGVYYCSQNTHVPPTFGQGTKVEIERTVAAPSVFIFPPSDEQLKSGTASVVCLLNNFYPREAKVQWKVDNALQSGNSQESVTEQDSKDSTYSLSSTLTLSKADYEKHKVYACEVTHQGLSSPVTKSFNRGEC |
| 1.67 | 106 % of control | 63.7 % of control | GpH7-A5/GpH7-B3 variant A330_18N/GpL16-k0 (antibody, human IgG1, kappa, He Ab; mutation in the GpH7-B3 chain only; also called He Ab) heavy 1: not shown heavy 2: not shown light: DIVMTQSPLSLPVTPGEPASISCQASESLVHSNRNTYLHWYLQKPGQSPQLLIYKVSNRFSGVPDRFSGSGSGTDFTLKISRVEAEDVGVYYCSQNTHVPPTFGQGTKVEIERTVAAPSVFIFPPSDEQLKSGTASVVCLLNNFYPREAKVQWKVDNALQSGNSQESVTEQDSKDSTYSLSSTLTLSKADYEKHKVYACEVTHQGLSSPVTKSFNRGEC |
| 1.21 | 106 % of control | 87.6 % of control | GpH7-A5/GpH7-B3 variant A330_16H/GpL16-k0 (antibody, human IgG1, kappa, He Ab; mutation in the GpH7-B3 chain only; also called He Ab) heavy 1: not shown heavy 2: not shown light: DIVMTQSPLSLPVTPGEPASISCQASESLVHSNRNTYLHWYLQKPGQSPQLLIYKVSNRFSGVPDRFSGSGSGTDFTLKISRVEAEDVGVYYCSQNTHVPPTFGQGTKVEIERTVAAPSVFIFPPSDEQLKSGTASVVCLLNNFYPREAKVQWKVDNALQSGNSQESVTEQDSKDSTYSLSSTLTLSKADYEKHKVYACEVTHQGLSSPVTKSFNRGEC |
| 1.35 | 105 % of control | 77.9 % of control | GpH7-A5/GpH7-B3 variant A330_14T/GpL16-k0 (antibody, human IgG1, kappa, He Ab; mutation in the GpH7-B3 chain only; also called He Ab) heavy 1: not shown heavy 2: not shown light: DIVMTQSPLSLPVTPGEPASISCQASESLVHSNRNTYLHWYLQKPGQSPQLLIYKVSNRFSGVPDRFSGSGSGTDFTLKISRVEAEDVGVYYCSQNTHVPPTFGQGTKVEIERTVAAPSVFIFPPSDEQLKSGTASVVCLLNNFYPREAKVQWKVDNALQSGNSQESVTEQDSKDSTYSLSSTLTLSKADYEKHKVYACEVTHQGLSSPVTKSFNRGEC |
| 1.27 | 102 % of control | 80.4 % of control | GpH7-A5/GpH7-B3 variant E333_12R/GpL16-k0 (antibody, human IgG1, kappa, He Ab; mutation in the GpH7-B3 chain only; also called He Ab) heavy 1: not shown heavy 2: not shown light: DIVMTQSPLSLPVTPGEPASISCQASESLVHSNRNTYLHWYLQKPGQSPQLLIYKVSNRFSGVPDRFSGSGSGTDFTLKISRVEAEDVGVYYCSQNTHVPPTFGQGTKVEIERTVAAPSVFIFPPSDEQLKSGTASVVCLLNNFYPREAKVQWKVDNALQSGNSQESVTEQDSKDSTYSLSSTLTLSKADYEKHKVYACEVTHQGLSSPVTKSFNRGEC |
| 1.41 | 108 % of control | 76.1 % of control | GpH7-A5/GpH7-B3 variant A330_20W/GpL16-k0 (antibody, human IgG1, kappa, He Ab; mutation in the GpH7-B3 chain only; also called He Ab) heavy 1: not shown heavy 2: not shown light: DIVMTQSPLSLPVTPGEPASISCQASESLVHSNRNTYLHWYLQKPGQSPQLLIYKVSNRFSGVPDRFSGSGSGTDFTLKISRVEAEDVGVYYCSQNTHVPPTFGQGTKVEIERTVAAPSVFIFPPSDEQLKSGTASVVCLLNNFYPREAKVQWKVDNALQSGNSQESVTEQDSKDSTYSLSSTLTLSKADYEKHKVYACEVTHQGLSSPVTKSFNRGEC |
| 1.53 | 107 % of control | 70.1 % of control | GpH7-A5/GpH7-B3 variant A330_10E/GpL16-k0 (antibody, human IgG1, kappa, He Ab; mutation in the GpH7-B3 chain only; also called He Ab) heavy 1: not shown heavy 2: not shown light: DIVMTQSPLSLPVTPGEPASISCQASESLVHSNRNTYLHWYLQKPGQSPQLLIYKVSNRFSGVPDRFSGSGSGTDFTLKISRVEAEDVGVYYCSQNTHVPPTFGQGTKVEIERTVAAPSVFIFPPSDEQLKSGTASVVCLLNNFYPREAKVQWKVDNALQSGNSQESVTEQDSKDSTYSLSSTLTLSKADYEKHKVYACEVTHQGLSSPVTKSFNRGEC |
| 1.52 | 107 % of control | 70.5 % of control | GpH7-A5/GpH7-B3 variant A330_08L/GpL16-k0 (antibody, human IgG1, kappa, He Ab; mutation in the GpH7-B3 chain only; also called He Ab) heavy 1: not shown heavy 2: not shown light: DIVMTQSPLSLPVTPGEPASISCQASESLVHSNRNTYLHWYLQKPGQSPQLLIYKVSNRFSGVPDRFSGSGSGTDFTLKISRVEAEDVGVYYCSQNTHVPPTFGQGTKVEIERTVAAPSVFIFPPSDEQLKSGTASVVCLLNNFYPREAKVQWKVDNALQSGNSQESVTEQDSKDSTYSLSSTLTLSKADYEKHKVYACEVTHQGLSSPVTKSFNRGEC |
| 1.21 | 101 % of control | 83.3 % of control | GpH7-A5/GpH7-B3 variant E333_16H/GpL16-k0 (antibody, human IgG1, kappa, He Ab; mutation in the GpH7-B3 chain only; also called He Ab) heavy 1: not shown heavy 2: not shown light: DIVMTQSPLSLPVTPGEPASISCQASESLVHSNRNTYLHWYLQKPGQSPQLLIYKVSNRFSGVPDRFSGSGSGTDFTLKISRVEAEDVGVYYCSQNTHVPPTFGQGTKVEIERTVAAPSVFIFPPSDEQLKSGTASVVCLLNNFYPREAKVQWKVDNALQSGNSQESVTEQDSKDSTYSLSSTLTLSKADYEKHKVYACEVTHQGLSSPVTKSFNRGEC |
| 1.3 | 105 % of control | 80.5 % of control | GpH7-A5/GpH7-B3 variant A330_06M/GpL16-k0 (antibody, human IgG1, kappa, He Ab; mutation in the GpH7-B3 chain only; also called He Ab) heavy 1: not shown heavy 2: not shown light: DIVMTQSPLSLPVTPGEPASISCQASESLVHSNRNTYLHWYLQKPGQSPQLLIYKVSNRFSGVPDRFSGSGSGTDFTLKISRVEAEDVGVYYCSQNTHVPPTFGQGTKVEIERTVAAPSVFIFPPSDEQLKSGTASVVCLLNNFYPREAKVQWKVDNALQSGNSQESVTEQDSKDSTYSLSSTLTLSKADYEKHKVYACEVTHQGLSSPVTKSFNRGEC |
| 1.26 | 103 % of control | 81.4 % of control | GpH7-A5/GpH7-B3 variant E333_01G/GpL16-k0 (antibody, human IgG1, kappa, He Ab; mutation in the GpH7-B3 chain only; also called He Ab) heavy 1: not shown heavy 2: not shown light: DIVMTQSPLSLPVTPGEPASISCQASESLVHSNRNTYLHWYLQKPGQSPQLLIYKVSNRFSGVPDRFSGSGSGTDFTLKISRVEAEDVGVYYCSQNTHVPPTFGQGTKVEIERTVAAPSVFIFPPSDEQLKSGTASVVCLLNNFYPREAKVQWKVDNALQSGNSQESVTEQDSKDSTYSLSSTLTLSKADYEKHKVYACEVTHQGLSSPVTKSFNRGEC |
| 2.22 | 91.5 % of control | 41.3 % of control | GpH7-A5/GpH7-B3 variant A330_13S/GpL16-k0 (antibody, human IgG1, kappa, He Ab; mutation in the GpH7-B3 chain only; also called He Ab) heavy 1: not shown heavy 2: not shown light: DIVMTQSPLSLPVTPGEPASISCQASESLVHSNRNTYLHWYLQKPGQSPQLLIYKVSNRFSGVPDRFSGSGSGTDFTLKISRVEAEDVGVYYCSQNTHVPPTFGQGTKVEIERTVAAPSVFIFPPSDEQLKSGTASVVCLLNNFYPREAKVQWKVDNALQSGNSQESVTEQDSKDSTYSLSSTLTLSKADYEKHKVYACEVTHQGLSSPVTKSFNRGEC |
| 1.27 | 102 % of control | 80.6 % of control | GpH7-A5/GpH7-B3 variant E333_11K/GpL16-k0 (antibody, human IgG1, kappa, He Ab; mutation in the GpH7-B3 chain only; also called He Ab) heavy 1: not shown heavy 2: not shown light: DIVMTQSPLSLPVTPGEPASISCQASESLVHSNRNTYLHWYLQKPGQSPQLLIYKVSNRFSGVPDRFSGSGSGTDFTLKISRVEAEDVGVYYCSQNTHVPPTFGQGTKVEIERTVAAPSVFIFPPSDEQLKSGTASVVCLLNNFYPREAKVQWKVDNALQSGNSQESVTEQDSKDSTYSLSSTLTLSKADYEKHKVYACEVTHQGLSSPVTKSFNRGEC |
| 1.95 | 109 % of control | 55.6 % of control | GpH7-A5/GpH7-B3 variant A330_09D/GpL16-k0 (antibody, human IgG1, kappa, He Ab; mutation in the GpH7-B3 chain only; also called He Ab) heavy 1: not shown heavy 2: not shown light: DIVMTQSPLSLPVTPGEPASISCQASESLVHSNRNTYLHWYLQKPGQSPQLLIYKVSNRFSGVPDRFSGSGSGTDFTLKISRVEAEDVGVYYCSQNTHVPPTFGQGTKVEIERTVAAPSVFIFPPSDEQLKSGTASVVCLLNNFYPREAKVQWKVDNALQSGNSQESVTEQDSKDSTYSLSSTLTLSKADYEKHKVYACEVTHQGLSSPVTKSFNRGEC |
| 1.26 | 103 % of control | 81.8 % of control | GpH7-A5/GpH7-B3 variant E333_13S/GpL16-k0 (antibody, human IgG1, kappa, He Ab; mutation in the GpH7-B3 chain only; also called He Ab) heavy 1: not shown heavy 2: not shown light: DIVMTQSPLSLPVTPGEPASISCQASESLVHSNRNTYLHWYLQKPGQSPQLLIYKVSNRFSGVPDRFSGSGSGTDFTLKISRVEAEDVGVYYCSQNTHVPPTFGQGTKVEIERTVAAPSVFIFPPSDEQLKSGTASVVCLLNNFYPREAKVQWKVDNALQSGNSQESVTEQDSKDSTYSLSSTLTLSKADYEKHKVYACEVTHQGLSSPVTKSFNRGEC |
